Laboratory results taken from patent US20050282743A1, “Molecular interactions in cells” (Arbor Vita Corporation, priority 2001, published 2005).
Where a name gives a salt, the structure may show the parent alone. Ends that are not written are not given here. * marks the point of attachment. Biotin = O=C1N[C@H]2[C@H](CS[C@H]2CCCCC(=O)*)N1

Key:
[1] = system: hSyntenin : Presenilin (115L); assay: G assay with FDA approved drug (Example 7, TABLE 10A); assay type: binding; details: OD in absence of drug 1.1; drug concentration per TABLE 11; read after 30 minutes
Description: For certain of the PDZ proteins and PL proteins shown to bind together and for which Kd values had been obtained, additional testing was conducted to determine whether certain pharmaceutical compounds would act to antagonize or agonize the interactions. Assays were conducted as for the G′ assay described supra both in the presence and absence of test compound, except that 50 ul of a 10 uM solution of the biotinylated PL peptide is allowed to react with the surface bearing the PDZ-domain polypeptide instead of a 20 uM solution as specified in step (2) of the assay.
In both tables, the first column (left to right) entitled “PDZ domain” lists the gene name of GST-PDZ domain fusion (see TABLE 9). Entries having two numbers separated by a slash indicate which PDZ domain was utilized. For example, in TABLE 10A, the entry for ZO-3 is 1/3. This means that PDZ domain 1 of 3 was used.
The second column labeled “PL” indicates the name of the PDZ ligand (see TABLES 10A and 10B) interacting with the PDZ domain. The third column entitled “Drug” lists the common or trade name of pharmaceutical compound tested and found to modulate the specific PDZ-PL interaction (suppliers and chemical information are listed in TABLE 11). The final column with the heading “Change in OD” indicates the change in absorbance at 450 nm of the assay in the absence (first number) or presence (second number) of chemical compound.
Many FDA approved drugs have unknown mechanism of function. It is quite possible that some of these drugs function by disrupting or increasing PDZ/PL interactions. This possibility was examined by using the ‘G Assay’ (Example 3 section D). FDA approved drugs were incubated in the presence of the labeled peptide and compared to the same interaction without drug to determine if there was an effect on specific PDZ:PL interactions (drugs added with peptide at step 9 in Example 3D). The primary focus of this experiment was on drugs involved in treatment of depression (amitriptyline, desipramine, trimipramine, benztropine, and nortryptilline) and epilepsy (valproic acid). No modes of action are known for these drugs.
Therapeutic dose was determined by guidelines given in the Physician's Desk Reference and in the assay, 200 times this amount was used. If a dosage range was given, the upper end of the range was used. Each interaction listed in TABLES 10A & B was tested in the ‘G Assay’ (see Example 3) against each of the drugs listed in TABLE 11. The concentration of GST-fusion protein and peptide used in the assay represent the Kd and were determined by titration. These values can be found in TABLE 7. The drugs were added to the peptide before addition to the well containing the PDZ protein. Otherwise, the assay was carried out as described and read at 450 nm after 30 minutes of developing. For the sequences of the PDZs and PLs used in these tests, see TABLES 8 & 9.
List of interactions and therapeutics for which a modulation of binding was observed. Concentrations at which the GST-PDZ fusion protein and labeled peptide were used can be found in Table 7 or Table 12.

[2] = system: Mouse T cell lines stimulated with anti-mouse CD3; assay: T cell stimulation assay, anti-mouse CD3, IFNγ ELISA (FIG. 1B); assay type: cell-based; details: 10 μM Tat-peptide; compared to Tat-peptide alone
Description: Cell Cultures Cells were maintained and tested in RPMI 1640 media supplemented with 10% fetal calf serum (HyClone), 2 mM glutamine, 10 mM Hepes, 100 U/ml penicillin, 100 μg/ml streptomycin, 0.1 mM non-essential amino acids, 1 mM sodium pyruvate, and 50 μM beta mercaptoethanol.
Supernatants were assayed for cytokine production following activation of T cell lines. Mouse T cell lines were stimulated using two different methods, either with antigen and antigen presenting cells or anti-mouse CD3.
Antibody against mouse CD3 (Pharmigen #145-2C11) was coated overnight at 4° C. using 96-well flat bottom Elisa plates at a final concentration of 0.5 μg/ml, diluted in PBS. Just prior to use, plates were washed three times with 200 μl/well PBS to remove excess anti-CD3. […]
IFNγ was measured from cell supernatants, described above, at ambient temperature using the Endogen, Inc. ELISA protocol 3. […] The presence of IFNγ was detected with a biotin-labeled anti-mouse IFNγ monoclonal antibody (MM700B, Endogen, Inc.,). […] The absorbance at 450 nm was measured using a microtiter plate reader (Thermo Max, Molecular Devices) and the concentration of unknown IFNγ from cell supernatants was calculated from a standard curve generated by Softmax Pro software (Molecular Devices).

[3] = biological target: T1, PDZ protein (GST-PDZ fusion) (Homo sapiens, UniProt Q12923); assay: G' assay (10 uM PL peptide), results of TABLE 7 and TABLE 12; assay type: binding; details: PDZ PTPL-1, PDZ Domain 2
T1 construct: made in house; host or cells: E. coli (DH5alpha, BL21 or JM109)
T1 sequence (Q12923 whole entry, the tested form may be a part): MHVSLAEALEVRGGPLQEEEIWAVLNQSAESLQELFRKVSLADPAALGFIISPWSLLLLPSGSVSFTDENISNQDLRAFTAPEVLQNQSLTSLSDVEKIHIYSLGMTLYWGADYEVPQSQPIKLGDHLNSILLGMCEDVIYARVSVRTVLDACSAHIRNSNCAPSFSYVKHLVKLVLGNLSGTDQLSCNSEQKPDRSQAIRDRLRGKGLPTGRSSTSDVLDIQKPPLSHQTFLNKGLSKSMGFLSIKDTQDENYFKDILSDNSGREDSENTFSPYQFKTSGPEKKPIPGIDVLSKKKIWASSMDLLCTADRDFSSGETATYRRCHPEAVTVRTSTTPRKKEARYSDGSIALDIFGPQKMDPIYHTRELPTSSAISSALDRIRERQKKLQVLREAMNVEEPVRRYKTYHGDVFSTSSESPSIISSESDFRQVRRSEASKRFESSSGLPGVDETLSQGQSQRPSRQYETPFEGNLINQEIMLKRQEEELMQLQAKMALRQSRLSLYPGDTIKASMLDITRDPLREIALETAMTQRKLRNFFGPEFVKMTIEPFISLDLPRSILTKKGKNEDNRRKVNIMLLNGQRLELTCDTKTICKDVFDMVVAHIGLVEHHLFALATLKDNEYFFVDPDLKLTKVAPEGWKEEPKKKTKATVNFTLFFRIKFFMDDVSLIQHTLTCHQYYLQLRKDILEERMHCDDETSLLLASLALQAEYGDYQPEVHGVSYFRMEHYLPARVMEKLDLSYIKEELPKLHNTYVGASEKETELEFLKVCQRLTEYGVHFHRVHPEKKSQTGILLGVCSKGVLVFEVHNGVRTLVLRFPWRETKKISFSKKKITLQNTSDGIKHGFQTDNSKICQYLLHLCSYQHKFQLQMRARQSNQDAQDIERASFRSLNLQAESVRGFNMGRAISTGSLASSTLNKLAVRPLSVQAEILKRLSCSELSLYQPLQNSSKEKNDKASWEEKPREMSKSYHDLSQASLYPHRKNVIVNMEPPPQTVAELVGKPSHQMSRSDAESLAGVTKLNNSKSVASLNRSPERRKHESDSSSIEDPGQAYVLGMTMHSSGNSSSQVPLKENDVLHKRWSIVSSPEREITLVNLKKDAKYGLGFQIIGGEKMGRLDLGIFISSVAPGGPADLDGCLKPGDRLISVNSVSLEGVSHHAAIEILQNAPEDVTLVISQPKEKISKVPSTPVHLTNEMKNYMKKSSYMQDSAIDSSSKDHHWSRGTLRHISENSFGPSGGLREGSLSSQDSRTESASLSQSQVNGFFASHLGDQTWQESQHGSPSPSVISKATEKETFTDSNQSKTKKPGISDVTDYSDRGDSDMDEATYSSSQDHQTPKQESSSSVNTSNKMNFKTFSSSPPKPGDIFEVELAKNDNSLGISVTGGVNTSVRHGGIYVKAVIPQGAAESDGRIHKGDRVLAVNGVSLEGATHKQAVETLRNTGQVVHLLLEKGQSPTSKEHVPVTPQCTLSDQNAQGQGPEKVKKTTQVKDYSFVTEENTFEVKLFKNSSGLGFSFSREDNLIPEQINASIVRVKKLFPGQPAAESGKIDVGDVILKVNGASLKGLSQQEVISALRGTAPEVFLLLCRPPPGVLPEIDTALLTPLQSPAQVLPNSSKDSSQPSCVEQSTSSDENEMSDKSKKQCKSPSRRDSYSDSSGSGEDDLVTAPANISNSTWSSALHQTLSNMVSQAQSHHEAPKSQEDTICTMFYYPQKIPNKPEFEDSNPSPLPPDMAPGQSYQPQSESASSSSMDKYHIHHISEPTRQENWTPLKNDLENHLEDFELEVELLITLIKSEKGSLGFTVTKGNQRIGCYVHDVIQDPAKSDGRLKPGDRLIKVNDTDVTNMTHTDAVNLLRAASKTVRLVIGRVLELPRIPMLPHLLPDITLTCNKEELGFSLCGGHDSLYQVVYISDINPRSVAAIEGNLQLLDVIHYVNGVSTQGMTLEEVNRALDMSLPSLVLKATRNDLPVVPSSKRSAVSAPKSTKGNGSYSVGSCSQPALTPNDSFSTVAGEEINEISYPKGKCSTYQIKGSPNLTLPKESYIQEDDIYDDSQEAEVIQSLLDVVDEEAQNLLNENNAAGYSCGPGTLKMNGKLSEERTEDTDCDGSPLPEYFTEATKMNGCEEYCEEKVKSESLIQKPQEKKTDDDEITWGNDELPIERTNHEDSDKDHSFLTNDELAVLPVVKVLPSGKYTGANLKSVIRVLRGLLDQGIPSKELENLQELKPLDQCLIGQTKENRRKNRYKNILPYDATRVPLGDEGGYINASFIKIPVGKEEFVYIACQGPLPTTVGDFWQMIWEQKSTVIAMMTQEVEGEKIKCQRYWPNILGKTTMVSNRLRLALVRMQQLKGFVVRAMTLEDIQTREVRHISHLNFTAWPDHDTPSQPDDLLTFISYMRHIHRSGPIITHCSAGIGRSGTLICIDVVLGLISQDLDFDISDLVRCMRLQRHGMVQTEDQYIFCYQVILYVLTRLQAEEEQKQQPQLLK
Method in brief: (§1)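 Biotin-PL peptide (N-term label), 10 uM vs GST-PDZ; protein 5 ug/ml by default. A450 nm binned: 1 = 0-1, 2 = 1-2, 3 = 2-3, 4 = 3-4, 5 = >4 on >2 repeats, 0 = no binding.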

[4] = biological target: T2, PDZ protein (GST-PDZ fusion) (Homo sapiens, UniProt Q5TCQ9); assay: as above; assay type: binding; details: PDZ KIAA1634, PDZ Domain 2
T2 construct: made in house; host or cells: E. coli (DH5alpha, BL21 or JM109)
T2 sequence (Q5TCQ9 1-1481): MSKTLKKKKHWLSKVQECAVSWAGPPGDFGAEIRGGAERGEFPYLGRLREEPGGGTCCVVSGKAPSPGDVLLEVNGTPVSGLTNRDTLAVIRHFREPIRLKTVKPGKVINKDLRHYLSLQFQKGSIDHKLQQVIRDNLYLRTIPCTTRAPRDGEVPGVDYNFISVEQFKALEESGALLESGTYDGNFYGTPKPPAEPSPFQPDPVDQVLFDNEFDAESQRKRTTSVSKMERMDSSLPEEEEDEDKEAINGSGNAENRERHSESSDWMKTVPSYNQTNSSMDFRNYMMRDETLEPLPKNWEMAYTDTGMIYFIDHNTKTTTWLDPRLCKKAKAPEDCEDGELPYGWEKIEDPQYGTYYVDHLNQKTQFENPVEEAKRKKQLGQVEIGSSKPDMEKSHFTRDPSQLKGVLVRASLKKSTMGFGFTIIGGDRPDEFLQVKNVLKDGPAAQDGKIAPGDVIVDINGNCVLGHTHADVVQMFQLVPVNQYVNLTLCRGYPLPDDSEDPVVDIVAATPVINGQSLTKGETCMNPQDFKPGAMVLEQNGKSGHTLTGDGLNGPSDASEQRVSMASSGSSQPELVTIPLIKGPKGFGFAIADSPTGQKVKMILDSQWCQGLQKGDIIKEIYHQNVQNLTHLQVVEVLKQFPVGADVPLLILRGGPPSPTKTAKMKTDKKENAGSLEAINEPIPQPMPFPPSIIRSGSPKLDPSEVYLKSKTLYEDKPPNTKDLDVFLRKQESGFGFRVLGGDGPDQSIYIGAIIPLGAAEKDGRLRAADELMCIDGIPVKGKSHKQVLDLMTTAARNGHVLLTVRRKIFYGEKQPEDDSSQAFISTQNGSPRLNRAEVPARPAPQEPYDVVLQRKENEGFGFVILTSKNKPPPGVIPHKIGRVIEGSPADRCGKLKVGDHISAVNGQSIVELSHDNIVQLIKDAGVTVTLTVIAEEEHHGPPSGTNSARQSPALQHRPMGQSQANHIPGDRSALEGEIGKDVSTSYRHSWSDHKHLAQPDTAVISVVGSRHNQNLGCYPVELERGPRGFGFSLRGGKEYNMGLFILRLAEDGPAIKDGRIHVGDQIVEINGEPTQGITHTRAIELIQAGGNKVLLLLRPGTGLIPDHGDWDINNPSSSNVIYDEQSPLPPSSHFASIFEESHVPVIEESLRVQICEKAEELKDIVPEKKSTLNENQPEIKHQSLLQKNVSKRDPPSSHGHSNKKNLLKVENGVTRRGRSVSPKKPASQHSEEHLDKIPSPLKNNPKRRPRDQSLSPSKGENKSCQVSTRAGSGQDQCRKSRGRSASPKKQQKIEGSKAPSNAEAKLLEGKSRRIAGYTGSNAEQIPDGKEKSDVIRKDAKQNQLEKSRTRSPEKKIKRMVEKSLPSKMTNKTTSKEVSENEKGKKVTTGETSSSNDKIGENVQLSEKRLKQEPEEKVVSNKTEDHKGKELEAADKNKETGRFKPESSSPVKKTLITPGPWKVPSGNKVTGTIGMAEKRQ
Method in brief: as §1

DLG1 (PDZ Domain 1, 2) = biological target: T3, DLG1 (PDZ Domain 1, 2) (Homo sapiens, UniProt Q12959); assay: G' assay, TABLE 12; assay type: binding; details: A450 nm class of biotinylated PL peptide bound; 0 in conc columns = peptide 10 uM, protein 5 ug/ml
T3 construct: made in house; host or cells: E. coli (DH5alpha, BL21 or JM109)
T3 sequence (Q12959 213-413 limits assumed): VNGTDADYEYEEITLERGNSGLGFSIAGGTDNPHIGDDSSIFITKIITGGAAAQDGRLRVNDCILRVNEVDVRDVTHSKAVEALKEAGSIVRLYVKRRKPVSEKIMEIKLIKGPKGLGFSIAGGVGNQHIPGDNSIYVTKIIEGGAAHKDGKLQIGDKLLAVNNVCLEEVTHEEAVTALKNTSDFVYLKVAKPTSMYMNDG
Description: (§2) The third column labeled “Peptide Optimal Concentration” in the tables is a number reflective of the binding interaction between the PL protein and PDZ protein. […] The column labeled “Protein Optimal Concentration” refers to the protein concentration used to assay PL interaction (in ug/ml); a ‘0’ is indicative of 5 ug/ml protein concentration; any other value represents the concentration (in ug/ml) used to determine the dissociation constant for a given interaction.
(§3) Finally, the seventh column labeled “Classification” is another measure of the level of binding. In particular, it provides an absorbance value at 450 nm which indicates the amount of PL peptide bound to the PDZ protein. The following numerical values have the following meanings: ‘1’—A450 nm 0-1; ‘2’—A450 nm 1-2; ‘3’—A450 nm 2-3; ‘4’—A450 nm 3-4; ‘5’—A450 nm of 4 more than 2× repeated; ‘0’—A450 nm 0, i.e., not found to interact. Thus, higher numbers indicate stronger interactions.
(§4) For convenience, the assay conditions described in this section are referred to as the “G′ assay” and the “G″ assay,” with the specific conditions described in the preceding section on G assays being referred to as the “G^0 assay.” The “G′ assay” is identical to the “G^0 assay” except at step (2) the peptide concentration is 10 uM instead of 20 uM. […] Correspondingly, it slightly increases the certainty that detected interactions are of sufficient affinity and half-life to be of biological importance and useful therapeutic targets.

NeDLG (PDZ Domain 1, 2) = biological target: T4, NeDLG (PDZ Domain 1, 2) (Homo sapiens, UniProt Q92796); assay: G' assay, TABLE 12; assay type: binding; details: A450 nm class of biotinylated PL peptide bound; 0 in conc columns = peptide 10 uM, protein 5 ug/ml
T4 construct: When more than one PDZ domain was cloned, the DNA portion cloned represents the PDZ domains and the cDNA portion located between individual domains; made in house; host or cells: E. coli (DH5alpha, BL21 or JM109)
T4 sequence (Q92796 129-315 limits assumed): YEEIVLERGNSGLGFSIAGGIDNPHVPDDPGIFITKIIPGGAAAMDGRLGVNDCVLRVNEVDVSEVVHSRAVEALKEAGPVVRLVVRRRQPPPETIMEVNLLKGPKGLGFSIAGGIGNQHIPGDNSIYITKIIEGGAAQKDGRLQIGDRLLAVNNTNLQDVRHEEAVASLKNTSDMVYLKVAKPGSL
Description: as §2, §3, §4

[5] = biological target: T5, PSD95 (PDZ Domain 1, 2, 3) (Homo sapiens, UniProt P78352); assay: G' assay, TABLE 12; assay type: binding; details: A450 nm class of biotinylated PL peptide bound; 0 in conc columns = peptide 10 uM, protein 5 ug/ml
T5 construct: When more than one PDZ domain was cloned, the DNA portion cloned represents the PDZ domains and the cDNA portion located between individual domains; made in house; host or cells: E. coli (DH5alpha, BL21 or JM109)
T5 sequence (P78352 58-398 limits assumed): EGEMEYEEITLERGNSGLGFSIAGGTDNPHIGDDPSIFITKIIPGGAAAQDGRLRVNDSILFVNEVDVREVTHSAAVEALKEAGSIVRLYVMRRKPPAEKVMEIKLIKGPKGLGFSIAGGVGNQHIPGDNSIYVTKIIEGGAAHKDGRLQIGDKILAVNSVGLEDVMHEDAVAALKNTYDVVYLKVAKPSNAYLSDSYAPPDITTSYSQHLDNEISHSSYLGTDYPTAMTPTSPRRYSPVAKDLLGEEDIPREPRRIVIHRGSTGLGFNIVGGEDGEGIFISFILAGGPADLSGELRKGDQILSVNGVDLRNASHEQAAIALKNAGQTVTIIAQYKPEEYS
Description: as §2, §3, §4

[6] = biological target: T6, PDZ protein (GST-PDZ fusion) (Homo sapiens, UniProt O14907); assay: G' assay (10 uM PL peptide), results of TABLE 7 and TABLE 12; assay type: binding; details: PDZ TIP1, PDZ Domain 1
T6 construct: made in house; host or cells: E. coli (DH5alpha, BL21 or JM109)
T6 sequence (O14907 1-124): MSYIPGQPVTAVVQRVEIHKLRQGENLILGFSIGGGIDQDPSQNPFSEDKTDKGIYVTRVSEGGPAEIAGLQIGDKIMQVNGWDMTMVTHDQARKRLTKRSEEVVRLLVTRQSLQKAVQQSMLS
Method in brief: as §1

[7] = biological target: T7, PDZ protein (GST-PDZ fusion) (Homo sapiens, UniProt O15021); assay: as above; assay type: binding; details: PDZ KIAA0303, PDZ Domain 1
T7 construct: made in house; host or cells: E. coli (DH5alpha, BL21 or JM109)
Method in brief: as §1

[8] = biological target: T8, PDZ protein (GST-PDZ fusion) (Homo sapiens, UniProt P78352); assay: as above; assay type: binding; details: PDZ PSD95, PDZ Domain 1, 2, 3
T8 construct: made in house; host or cells: E. coli (DH5alpha, BL21 or JM109)
T8 sequence (P78352 whole entry, the tested form may be a part): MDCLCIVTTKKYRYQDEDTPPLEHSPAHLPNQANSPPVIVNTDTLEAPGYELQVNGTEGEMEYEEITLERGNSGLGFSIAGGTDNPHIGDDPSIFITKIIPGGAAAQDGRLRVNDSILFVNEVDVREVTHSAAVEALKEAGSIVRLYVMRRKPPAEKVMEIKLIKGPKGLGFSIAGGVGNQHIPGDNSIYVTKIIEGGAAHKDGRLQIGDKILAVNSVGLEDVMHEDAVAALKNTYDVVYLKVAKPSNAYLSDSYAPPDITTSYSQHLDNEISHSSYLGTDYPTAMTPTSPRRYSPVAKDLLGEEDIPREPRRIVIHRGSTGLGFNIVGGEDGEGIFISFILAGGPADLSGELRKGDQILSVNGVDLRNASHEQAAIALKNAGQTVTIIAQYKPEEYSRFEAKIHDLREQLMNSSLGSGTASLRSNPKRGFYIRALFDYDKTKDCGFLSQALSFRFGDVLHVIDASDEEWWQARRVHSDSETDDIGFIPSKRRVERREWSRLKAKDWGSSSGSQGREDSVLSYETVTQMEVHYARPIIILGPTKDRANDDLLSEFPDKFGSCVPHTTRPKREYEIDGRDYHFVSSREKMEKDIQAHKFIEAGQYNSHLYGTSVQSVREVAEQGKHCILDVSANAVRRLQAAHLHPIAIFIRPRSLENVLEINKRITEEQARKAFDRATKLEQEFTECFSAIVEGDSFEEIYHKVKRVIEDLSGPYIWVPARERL
Method in brief: as §1

[9] = biological target: T9, PDZ protein (GST-PDZ fusion) (Homo sapiens, UniProt Q6P0Q8); assay: as above; assay type: binding; details: PDZ KIAA807
T9 construct: made in house; host or cells: E. coli (DH5alpha, BL21 or JM109)
Method in brief: as §1

[10] = system: PDZ protein (GST-PDZ fusion); assay: as above; assay type: binding
Method in brief: as §1

CC(CN(C)C)CN1c2ccccc2CCc2ccccc21 (centres unmarked) [Trinipramine, TRIMIPRAMINE MALEATE]
Change in OD: absorbance at 450 nm in presence of drug [1]: 1.1 to 2.2

GYGRKKRRQRRRGMTSSSSVV
T cell activation mediated by monoclonal anti-CD3 (IFNγ production) [2]: inhibited T cell activation

HPTDITGLPNLSDPSVSTVV (Biotin-HPTDITGLPNLSDPSVSTVV) [NMDA R2C]
Classification [3]: 1 (A450 nm 0-1) | Classification [4]: 1 (A450 nm 0-1) | Classification (DLG1 (PDZ Domain 1, 2)): 1 (A450 nm 0-1) | Classification (NeDLG (PDZ Domain 1, 2)): 2 (A450 nm 1-2) | Classification [5]: 1 (A450 nm 0-1)

A2AB_HUMAN (modified) (Biotin-QDFRRAFRRILARPWTQTAW; not fully specified)
Classification [6]: 5 (A450 nm of 4 more than 2× repeated) | Classification [7]: 4 (A450 nm 3-4) | Classification [8]: 5 (A450 nm of 4 more than 2× repeated) | Classification [9]: 4 (A450 nm 3-4) | Classification ([10]; PDZ BAI-1, PDZ Domain 2): 4 (A450 nm 3-4) | Classification ([10]; PDZ BAI-1, PDZ Domain 4): 5 (A450 nm of 4 more than 2× repeated)

GYGRKKRRQRRRGSISSSAEV [Tat-CLASP1 fusion peptide]
T cell activation mediated by monoclonal anti-CD3 (IFNγ production) [2]: did not inhibit T cell activation
